Test results taken from patent EP4636087A1, “ANTI-GPA33 ANTIBODY AND UTILIZATION THEREOF” (Kagoshima University, priority 2022, dated 2024).

T1: human GPA33 expressed on CHO-K1 cells (hGPA33-expressing cells co-expressing GFP) (human, UniProt Q99795 22-319)
T1 construct: whole, on cells; CHO-K1 transfected with an hGPA33 expression vector (ORIGENE) co-expressing GFP
T1 sequence (looked up): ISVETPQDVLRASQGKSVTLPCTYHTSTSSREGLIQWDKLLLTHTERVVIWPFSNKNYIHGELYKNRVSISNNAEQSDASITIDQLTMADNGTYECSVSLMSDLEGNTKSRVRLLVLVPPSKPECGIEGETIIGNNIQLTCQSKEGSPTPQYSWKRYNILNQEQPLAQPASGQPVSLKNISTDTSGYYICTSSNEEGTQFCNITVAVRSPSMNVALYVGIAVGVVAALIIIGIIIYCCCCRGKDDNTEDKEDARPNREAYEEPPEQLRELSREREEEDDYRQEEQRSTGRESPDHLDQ

T2: mouse GPA33 expressed on CHO-K1 cells (mGPA33-expressing cells) (mouse, UniProt Q9JKA5 22-319)
T2 construct: whole, on cells
T2 sequence (looked up): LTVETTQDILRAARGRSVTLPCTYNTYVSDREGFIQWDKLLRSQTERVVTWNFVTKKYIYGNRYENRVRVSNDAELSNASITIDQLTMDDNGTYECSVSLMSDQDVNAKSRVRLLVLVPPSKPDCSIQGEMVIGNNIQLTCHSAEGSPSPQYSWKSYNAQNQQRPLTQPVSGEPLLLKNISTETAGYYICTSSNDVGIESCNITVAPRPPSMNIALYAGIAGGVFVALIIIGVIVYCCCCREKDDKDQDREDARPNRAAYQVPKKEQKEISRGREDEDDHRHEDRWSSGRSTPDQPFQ


Tests used:
[1] = target: T1, human GPA33 expressed on CHO-K1 cells …; test: FACS, 0.1 µg scFv on GPA33-expressing CHO-K1 cells, anti-His-biotin and SA-PE detection
[2] = target: T2, mouse GPA33 expressed on CHO-K1 cells …; test: as above
[3] = system: Mouse small intestinal organoids; test: Mouse small intestinal organoid culture; type: cell-based; set-up: key: those in which clear proliferation was observed are indicated with ○; those in which proliferation was observed but to a weak extent are indicated with △; those in which no proliferation was observed are indicated with ×
Description: Mouse small intestinal organoid culture using anti-GPA33 antibody scFv-Rspo fragment fusion (Example 18) and anti-GPA33 antibody scFv-Rspo fragment-Fc conjugate (Example 19) was performed as shown below. Mouse small intestinal organoids (VERITAS ST-70931) were maintenance cultured in ENR medium obtained by adding 2 µg/mL of the recombinant Rspo1FL-Fc prepared in Example 10 to EN medium (DMEM/F-12 containing penicillin/streptomycin, 10 mM HEPES, GlutaMAX, 1xN2, 1xB27 (all Gibco), 1 mM N-acetylcysteine (FUJIFILM Wako Pure Chemical), 50 ng/mL mouse EGF (Gibco), and 100 ng/mL mouse Noggin (PEPROTECH)), or ENR+WA medium (DMEM/F-12 containing penicillin/streptomycin, 10 mM HEPES, GlutaMAX, 1xN2, 1xB27 (all Gibco), […] N-acetylcysteine (FUJIFILM Wako Pure Chemical), 50 ng/mL mouse EGF (Gibco), and 100 ng/mL mouse Noggin (PEPROTECH), 10% Afamin/Wnt3a CM (MBL), and 500 nM A-83-01 (FUJIFILM Wako Pure Chemical)). Mouse small intestinal organoids were collected with Gentle Cell Dissociation Reagent (STEMCELL), resuspended in EN medium and Matrigel (Corning), and seeded onto 48-well plates. 250 µL of (1) EN medium, (2) EN medium containing recombinant Rspo1FL-Fc (20 ng/mL or 1 µg/mL) prepared in Example 10, or (3) EN medium containing anti-GPA33 antibody scFv-Rspo fragment fusion or anti-GPA33 antibody scFv-Rspo fragment-Fc conjugate ([…]) was added to each well. The medium was changed once every three days, and the cells were cultured for six days.
Comparing organoids on the first day (Day 1) and the fifth day (Day 5) after seeding, those in which clear proliferation was observed are indicated with ○, those in which proliferation was observed but to a weak extent are indicated with △, and those in which no proliferation was observed are indicated with ×. Samples that were not evaluated are indicated with ND.

Wnt/β-catenin signal [4] = test: Wnt/β-catenin reporter EC50 in 293STF cells expressing GPA33; type: cell-based, human
Description: (§1) The Wnt/β-catenin signal promoting activity of the anti-GPA33 antibody scFv-Rspo fragment fusion recombinant prepared in Example 18 was measured as follows. ONE-Glo™ + Tox Luciferase Reporter and Cell Viability Assay (Promega) was used for the measurement. […] The cells into which each vector was introduced were cultured for 2 days in DMEM medium containing 10% FBS (Nichirei), and then the cells were collected and seeded at 100 µL/well on a CulturPlate-96 (PerkinElmer). The next day, 100 µL of (1) control medium or (2) medium containing recombinant Rspo1FL-Fc or various anti-GPA33 antibody scFv-Rspo fragment fusion recombinant proteins prepared in Example 10 (10-fold serial dilution between 10000 and 0.001 ng/mL, final concentration 5000 to […]) was added to each well. […] The fluorescence value was measured using a Microplate Reader SH-9000 (CORONA). 100 µL of ONE-Glo (trademark) Reagent (Promega) was added to the plate and incubated at room temperature for 3 min, after which the luminescence value was measured using a NIVO microplate reader (PerkinElmer). […] Samples with low activity for which the EC50 value could not be determined were marked NC. […]
(§2) The Wnt/β-catenin signal promoting activity of the anti-GPA33 antibody scFv-Rspo fragment-Fc conjugate R1CRD-hFcm-tCAP-G17 prepared in Example 19 was measured as shown in Example 20. […]

Wnt/β-catenin signal [5] = test: Wnt/β-catenin reporter EC50 in 293STF cells expressing MOG; type: cell-based, human; details: NC = low activity, EC50 could not be determined (taken as >30 nM for the ratio)
Description: as §1, §2

Row | Molecule | binding result [1] | binding result [2] | organoid proliferation (Day 1 vs Day 5) ([3]; 0.2 ng/ml) | organoid proliferation (Day 1 vs Day 5) ([3]; 0.8 ng/ml) | organoid proliferation (Day 1 vs Day 5) ([3]; 1.4 ng/ml) | organoid proliferation (Day 1 vs Day 5) ([3]; 2 ng/ml) | organoid proliferation (Day 1 vs Day 5) ([3]; 20 ng/ml) | organoid proliferation (Day 1 vs Day 5) ([3]; 100 ng/ml (conjugate section head, or cells marked *)) | organoid proliferation (Day 1 vs Day 5) ([3]; 1000 ng/ml) | EC50 (Wnt/β-catenin signal [4]; 293STF cells expressing GPA33, Afamin/Wnt3a 883 ng/mL, 18 hr) | EC50(MOG)/ EC50(GPA33) (Wnt/β-catenin signal [4]; ratio, NC assumed >30 nM) | EC50 (Wnt/β-catenin signal [5])
1 | 2RC28-Cys anti-GPA33 scFv (Cys-containing sequence, His tag and Myc tag at the C-terminal side), expressed in Escherichia coli (scFv, Periplasmic expression in E. coli HB2151, purified on a His tag column; also called 2RC28 scFv; anti-GPA33 single chain Fv-His) scFv: EVQLVESGGGLVKPGGSLRLSCAASGFTFSSYSMNWVRQAPGKGLEWVSSISRDSTYIYYADSVKGRFTISRDNAKNSLYLQMNSLRAEDTAVYYCAREGVAGAFDIWGQGTMVTVSSGGGGSGGGGSGSTGSAIQLTQSPSSLSASVGDRVTITCRASQSISSYLNWYQQKPGKAPKLLIYIASSLQSGVPSRFSGSGSGTDFTLTISSLQPEDFATYYCQQSYNTWTFGQGTKVEIKAACTSAHHHHHHGAAEQKLISEEDLNGAA | binds | binds |  |  |  |  |  |  |  |  |  | 
2 | R1CRD-hFcm-tCAP-G17: conjugate of azidized R1CRD-Fcm and DBCO-G17 scFv by tCAP and click reaction (conjugate) SRGIKGKRQRRISAEGSQACAKGCELCSEVNGCLKCSPKLFILLERNDIRQVGVCLPSCPPGYFDARNPDMNKCIKCKIEHCEACFSHNFCTKCKEGLYLHKGRCYPACPEGSSAANGTMECSSPAEPKSADKTHTCPPCPAPEAEGAPSVFLFPPKPKDTLMISRTPEVTCVVVDVSHEDPEVKFNWYVDGVEVHNAKTKPREEQYNSTYRVVSVLTVLHQDWLNGKEYKCAVSNKALPASIEKTISKAKGQPREPQVYTLPPSREEMTKNQVSLTCLVKGFYPSDIAVEWESNGQPENNYKTTPPVLDSDGSFFLYSKLTVDKSRWQQGNVFSCSVMHEALHNHYTQKSLSLSPGK scFv: QMQLVQSGGGLVKPGGSLRLSCAASGFTFSSYNMNWVRQAPGKGLEWVSSISSSGDFMYYADSVKGRFTISRDNAKNSLYLQMSSLRAEDTAVYYCAREGPGTPFDYWGQGTLVTVSSGGGGSGGGGSGSTGSAIQLTQSPSSLSASVGDRVTITCRASQSISSFLNWYQHKPGKAPKLLIYVASSLQSGVPSRFSGSGSGTDFTLTISSLQPEDFATYYCQQSHNTPYTFGQGTKLEIKEPRTPRPCLVPRGSHHHHHHGA |  |  | × | × | × | × | Δ | ○ | ○ | 0.085 nM | 47.53 | 4.04 nM
